Results as given in patent US20150239980A1 (NEOTOPE BOSCIENCES, published 2015).
Numbering of substitutions follows the chain as printed. Each block holds one binder with its values, some of them ahead of it.

Experiments:
recombinant hMCAM-His [1] = target: T1, recombinant hMCAM-His (human, UniProt P43121 24-559); assay: ForteBio Octet Red, hMCAM-His analyte; Expt. #1; vs rodent 2107
T1 construct: not shown: His tag
T1 chain: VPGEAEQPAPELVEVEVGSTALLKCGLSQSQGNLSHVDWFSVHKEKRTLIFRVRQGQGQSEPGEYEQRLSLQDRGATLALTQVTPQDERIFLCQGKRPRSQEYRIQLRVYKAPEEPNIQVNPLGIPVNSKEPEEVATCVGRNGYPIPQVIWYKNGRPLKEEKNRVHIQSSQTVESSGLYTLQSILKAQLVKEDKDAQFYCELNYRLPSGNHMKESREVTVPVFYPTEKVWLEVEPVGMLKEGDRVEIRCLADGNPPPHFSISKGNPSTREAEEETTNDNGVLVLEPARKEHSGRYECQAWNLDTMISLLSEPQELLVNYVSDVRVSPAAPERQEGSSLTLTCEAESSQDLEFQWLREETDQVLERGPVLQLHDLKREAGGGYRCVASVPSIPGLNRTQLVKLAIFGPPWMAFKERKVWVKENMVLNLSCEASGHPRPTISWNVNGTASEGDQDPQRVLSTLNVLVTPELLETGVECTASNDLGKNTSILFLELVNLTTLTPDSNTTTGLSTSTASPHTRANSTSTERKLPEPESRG
Method: (§1) The affinities were measured using the ForteBio Octet Red. Anti-human Fc sensors were used to capture the humanized antibodies, and several concentrations of hMCAMHis analyte were used to determine the affinity using a 1:1 fitting model.

recombinant hMCAM-His [2] = target: T1, recombinant hMCAM-His; assay: ForteBio Octet Red, hMCAM-His analyte; Expt. #2; vs rodent 2107
Method: as §1

recombinant hMCAM-His [3] = target: T1, recombinant hMCAM-His; assay: ForteBio Octet Red, hMCAM-His analyte; Forte column 1; vs rodent 2107
Method: as §1

recombinant hMCAM-His [4] = target: T1, recombinant hMCAM-His; assay: ForteBio Octet Red, hMCAM-His analyte; Forte column 2; vs rodent 2107
Method: as §1

[5] = target: T2, human MCAM (melanoma cell adhesion molecule) expressed on transfected CHO cells (human, UniProt P43121 24-646); assay: laminin/FACS on hMCAM CHO cells, competitor laminin 411; Expt#1; vs rodent 2107
T2 construct: also called hMCAM; CD146
T2 chain: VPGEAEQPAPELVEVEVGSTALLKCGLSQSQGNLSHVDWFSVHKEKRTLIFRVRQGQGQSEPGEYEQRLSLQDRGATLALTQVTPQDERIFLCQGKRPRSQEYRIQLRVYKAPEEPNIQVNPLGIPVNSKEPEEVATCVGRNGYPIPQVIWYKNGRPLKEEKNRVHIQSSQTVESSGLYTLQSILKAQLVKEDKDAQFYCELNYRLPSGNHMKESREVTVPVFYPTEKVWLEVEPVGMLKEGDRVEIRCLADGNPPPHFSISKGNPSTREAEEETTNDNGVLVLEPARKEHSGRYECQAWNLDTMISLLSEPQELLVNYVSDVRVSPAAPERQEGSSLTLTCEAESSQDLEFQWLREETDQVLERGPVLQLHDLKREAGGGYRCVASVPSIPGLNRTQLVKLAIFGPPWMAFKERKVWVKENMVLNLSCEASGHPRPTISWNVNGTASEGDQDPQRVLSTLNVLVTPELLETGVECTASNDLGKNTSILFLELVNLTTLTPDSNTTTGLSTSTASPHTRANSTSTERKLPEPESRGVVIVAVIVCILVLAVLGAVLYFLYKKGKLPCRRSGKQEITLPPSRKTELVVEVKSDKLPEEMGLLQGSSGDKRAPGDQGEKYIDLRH
Method: (§2) Following incubation for 30-45 minutes, the cells were washed and anti-laminin conjugated to AF650 (NovusBio) was added to detect the bound laminin. The cells were run on a flow cytometer to measure the laminin binding signal.

recombinant hMCAM-His [6] = target: T1, recombinant hMCAM-His; assay: competitive ELISA on hMCAM-His, competitor biotinylated rodent or chimeric 2107; vs rodent 2107
Method: (§3) ELISA plates were coated with recombinant hMCAM-His, and blocked with casein buffer to prevent non-specific binding. Biotinylated rodent or chimeric antibody was added at a subsaturating concentration, in the presence or absence of 3× increasing concentrations of unlabeled competitor (humanized antibody, rodent, or chimeric). After washing to remove unbound antibody, streptavidin HRP was added to allow detection of the biotinylated antibody. The ELISA was developed with TMB substrate and the OD450 was measured. The IC50 of the unlabeled competitor was determined using the GraphPad Prism5 software.

recombinant hMCAM-His [7] = target: T1, recombinant hMCAM-His; assay: competitive ELISA on hMCAM-His, competitor biotinylated rodent or chimeric 2107; Expt. #1; vs rodent 2107
Method: as §3

recombinant hMCAM-His [8] = target: T1, recombinant hMCAM-His; assay: competitive ELISA on hMCAM-His, competitor biotinylated rodent or chimeric 2107; Expt. #2; vs rodent 2107
Method: as §3

[9] = target: T2, human MCAM (melanoma cell adhesion …); assay: flow cytometry, human MCAM CHO cells preincubated with antibody, competitor recombinant human laminin 411 at 20 ug/ml
Method: The 87 independent mouse fusion clones and 26 independent rat fusion clones described in Example 10 above as being capable of (i) binding to human MCAM, and (ii) blocking the interaction between human MCAM and the α-4 chain of laminin were further characterized as follows. First, IC50 quantitation for the ability of the monoclonal antibody to block the binding of human MCAM to the α-4 chain of laminin was determined as follows. CHO cells expressing human MCAM were incubated with an anti-human MCAM antibody (at various concentrations) for 30 minutes at 4 degrees Celsius. […] Unbound laminin was then washed away, and the laminin bound to the surface of the cells was detected with fluorescently labeled anti-laminin antibodies. After washing, the amount of laminin bound to the surface was detected by flow cytometry, and IC50s were calculated based on the mean fluorescent intensity.
These six anti-MCAM monoclonal antibody clones are herein referred to as (i) the mouse anti-human MCAM monoclonal clones 1174.1.3, 1414.1.2, 1415.1.1, and 1749.1.3, and (ii) the rat anti-human MCAM monoclonal antibody clones 2120.4.19 and 2107.4.10. […] As such, each of these specific monoclonal antibodies was very capable of binding to human MCAM and inhibiting the interaction of cell-expressed human MCAM with its α-4 laminin binding ligand.

recombinant hMCAM-His [10] = target: T1, recombinant hMCAM-His; assay: summary of ForteBio and competitive ELISA on hMCAM-His; vs rodent 2107
Method: as §3, §1

[11] = target: T2, human MCAM (melanoma cell adhesion …); assay: summary of laminin blocking assay on hMCAM CHO cells, competitor laminin 411; vs rodent 2107
Method: as §2

[12] = target: T2, human MCAM (melanoma cell adhesion …); assay: laminin/FACS on hMCAM CHO cells, competitor laminin 411; Expt#2; reference row with 1.0 is chimeric 2107
Method: as §2

fold over rodent (Forte affinity) (recombinant hMCAM-His [1]): 1 fold | fold over rodent (Forte affinity) (recombinant hMCAM-His [2]): 1 fold | fold over rodent (Forte affinity) (recombinant hMCAM-His [3]): 1 fold | fold over rodent (Forte affinity) (recombinant hMCAM-His [4]): 1 fold | fold over rodent (blocking, laminin/FACS) [5]: 1 fold | fold over rodent (competitive ELISA) (recombinant hMCAM-His [6]): 1 fold | fold over rodent (competitive ELISA) (recombinant hMCAM-His [7]): 1 fold | fold over rodent (competitive ELISA) (recombinant hMCAM-His [8]): 1 fold | IC50 [9]: 0.29 µg/mL
B1: rat anti-human MCAM monoclonal antibody clone 2107.4.10 (antibody, V domains shown)
VH: QVQLKESGPGLVQSSQTLSLTCTVSGFSLTSNGVSWVRQPPGKGLEWIAAISSGGSTYYNSAFKSRLSISRNTSKSQVLLKMNSLQTEDTGMYFCARHRPFYFDYWGQGVMVTVSS
VL: DIQVTQSPSLLSASVGDRVTLNCKGSQNIYKSLAWFRLKRGEAPKLLIYDANSLQTGIPSRFSGSGSGTDFTLTITSLQPEDVATYFCQQYYSGYTFGAGTKLELK
notes: rat hybridoma antibody; elsewhere '83 or 84'); also called rodent 2107; murine 2107.4.10.18 anti-MCAM antibody

fold over rodent (Forte affinity) (recombinant hMCAM-His [1]): 2.37 fold | fold over rodent (Forte affinity) (recombinant hMCAM-His [2]): 3.4 fold | fold reduction in affinity compared to the rodent (recombinant hMCAM-His [10]): < 3 fold | fold over rodent (Forte affinity) (recombinant hMCAM-His [3]): 3 fold | fold over rodent (Forte affinity) (recombinant hMCAM-His [4]): 2.8 fold | fold over rodent (blocking, laminin/FACS) [5]: 1.9 fold | fold reduction in potency compared to the rodent [11]: < 3 fold | fold over rodent (competitive ELISA) (recombinant hMCAM-His [6]): 1.4 fold | fold over rodent (blocking, laminin/FACS) [12]: 1.4 fold | fold over rodent (competitive ELISA) (recombinant hMCAM-His [7]): 1.29 fold | fold over rodent (competitive ELISA) (recombinant hMCAM-His [8]): 1.32 fold
B2: h2107_VH1 + h2107_VL2 (antibody, human IgG1, V domains shown)
VH: QVTLKESGPVLVKPTETLTLTCTVSGFSLTSNGVSWVRQPPGKALEWIAAISSGGSTYYNSAFKSRLTISRDTSKSQVVLTMTNMDPVDTATYYCARHRPFYFDYWGQGTLVTVSS
VL: DIQMTQSPSSLSASVGDRVTITCKGSQNIYKSLAWFQLKPGKVPKLLIYDANSLQTGIPSRFSGSGSGTDFTLTISSLQPEDVATYYCQQYYSGYTFGGGTKVEIK
notes: also called VH1VL2

fold over rodent (Forte affinity) (recombinant hMCAM-His [1]): 2.54 fold | fold over rodent (Forte affinity) (recombinant hMCAM-His [2]): 3.58 fold | fold reduction in affinity compared to the rodent (recombinant hMCAM-His [10]): < 3 fold | fold over rodent (Forte affinity) (recombinant hMCAM-His [3]): 2.7 fold | fold over rodent (Forte affinity) (recombinant hMCAM-His [4]): 2.9 fold | fold over rodent (blocking, laminin/FACS) [5]: 1.4 fold | fold reduction in potency compared to the rodent [11]: < 3 fold | fold over rodent (competitive ELISA) (recombinant hMCAM-His [6]): 1.3 fold | fold over rodent (blocking, laminin/FACS) [12]: 1.5 fold | fold over rodent (competitive ELISA) (recombinant hMCAM-His [7]): 1.32 fold | fold over rodent (competitive ELISA) (recombinant hMCAM-His [8]): 1.48 fold
B3: h2107_VH2 + h2107_VL2 (antibody, human IgG1, V domains shown)
VH: B2 VH with T68S
VL: B2 VL
notes: also called h2107VH2VL2; VH2VL2
